Key:
[1] = target: Glutamyl (aspartyl)-specific aminopeptidase A (PepA) from Lactobacillus delbrueckii ssp. lactis DSM 20072 (Lactobacillus delbrueckii ssp. lactis DSM 20072); assay: SEC; Superdex 200 10/300 GL, 30 uL at 1 mg/mL, 0.75 mL/min, 10 mM Na/K-phosphate pH 6.0 with 150 mM NaCl; native mass against calibration proteins, divided by the monomer's mass
Lc-PepA [2] = target: T1, Lc-PepA (Lactococcus lactis, UniProt Q9CIH3); assay: product inhibition, p-nitroaniline release at […] nm; type: biochemical
T1 construct: full length (355 aa, 1068 bp gene), C-terminal His6-tag kept, pET20b(+), E. coli BL21(DE3), Ni-NTA purified
T1 sequence (Q9CIH3 1-355): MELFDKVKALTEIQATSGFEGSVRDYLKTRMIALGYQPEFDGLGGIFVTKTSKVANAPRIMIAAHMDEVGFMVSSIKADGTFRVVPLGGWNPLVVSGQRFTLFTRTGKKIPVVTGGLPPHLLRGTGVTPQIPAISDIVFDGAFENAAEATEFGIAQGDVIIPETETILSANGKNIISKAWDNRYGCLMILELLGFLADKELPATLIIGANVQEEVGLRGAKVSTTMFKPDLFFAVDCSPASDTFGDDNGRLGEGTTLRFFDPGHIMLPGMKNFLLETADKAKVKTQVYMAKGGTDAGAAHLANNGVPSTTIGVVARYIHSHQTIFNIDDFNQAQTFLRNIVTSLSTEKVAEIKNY

Lb-PepA = target: T2, Lb-PepA (Lactobacillus delbrueckii, UniProt F0HXE4); assay: p-nitroaniline release at […] nm, Michaelis-Menten nonlinear fit; type: biochemical; conditions: substrate inhibition constant, apparent; 50 mM Na/K-phosphate pH 6.0, 60 °C, 0.625 mM CoCl2
T2 construct: full length (361 aa, 1086 bp gene), C-terminal His6-tag kept, pET20b(+), E. coli BL21(DE3), Ni-NTA purified
T2 sequence (F0HXE4 1-361): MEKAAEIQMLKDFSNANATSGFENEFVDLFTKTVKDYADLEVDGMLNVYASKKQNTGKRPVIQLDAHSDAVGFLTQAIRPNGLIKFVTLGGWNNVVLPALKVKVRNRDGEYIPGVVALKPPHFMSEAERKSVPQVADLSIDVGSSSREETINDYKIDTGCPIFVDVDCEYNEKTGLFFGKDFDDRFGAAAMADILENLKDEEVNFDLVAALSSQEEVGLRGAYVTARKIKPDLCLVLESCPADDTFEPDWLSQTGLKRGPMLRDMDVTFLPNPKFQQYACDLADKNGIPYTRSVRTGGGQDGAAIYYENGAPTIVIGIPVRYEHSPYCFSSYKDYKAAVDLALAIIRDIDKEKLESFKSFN

Lc-PepA [3] = target: T1, Lc-PepA; assay: as above; type: biochemical; conditions: substrate inhibition constant, apparent; 50 mM Na/K-phosphate pH 8.0, 65 °C, 0.3125 mM CoCl2
[4] = target: Glutamyl (aspartyl)-specific aminopeptidase A (PepA) from Lactococcus lactis ssp. lactis DSM 20481 (Lactococcus lactis ssp. lactis DSM 20481) (UniProt Q48677); assay: SEC; Superdex 200 10/300 GL, 30 uL at 1 mg/mL, 0.75 mL/min, 10 mM Na/K-phosphate pH 8.0 with 150 mM NaCl; native mass against calibration proteins, divided by the monomer's mass
Lc-PepA [5] = target: T1, Lc-PepA; assay: p-nitroaniline release at […] nm, Michaelis-Menten nonlinear fit; type: biochemical; conditions: substrate inhibition constant, apparent; 50 mM Na/K-phosphate pH 8.0, 65 °C, 0.3125 mM CoCl2; remark: listed apart in the source
purified protein [6] = substrate: N[C@@H](CC(=O)O)C(=O)Nc1ccc([N+](=O)[O-])cc1; assay: purified protein; type: biochemical, Lactobacillus delbrueckii; conditions: apparent, 50 mM Na/K-phosphate pH 6.0, 60 °C, 0.625 mM CoCl2, about 5% DMSO, fit with substrate inhibition
purified protein [7] = substrate: N[C@@H](CCC(=O)O)C(=O)Nc1ccc([N+](=O)[O-])cc1; assay: purified protein; type: biochemical, Lactobacillus delbrueckii; conditions: apparent, 50 mM Na/K-phosphate pH 6.0, 60 °C, 0.625 mM CoCl2, about 5% DMSO, substrate tested only up to 7.3 mM (solubility)
purified protein [8] = substrate: N[C@@H](CC(=O)O)C(=O)Nc1ccc([N+](=O)[O-])cc1; assay: purified protein; type: biochemical, Lactococcus lactis; conditions: apparent, 50 mM Na/K-phosphate pH 8.0, 65 °C, 0.3125 mM CoCl2, about 5% DMSO, fit with substrate inhibition
purified protein [9] = substrate: N[C@@H](CCC(=O)O)C(=O)Nc1ccc([N+](=O)[O-])cc1; assay: purified protein; type: biochemical, Lactococcus lactis; conditions: apparent, 50 mM Na/K-phosphate pH 8.0, 65 °C, 0.3125 mM CoCl2, about 5% DMSO, fit with substrate inhibition

## Glutamyl (aspartyl)-specific aminopeptidase A (PepA) from Lactobacillus delbrueckii ssp. lactis DSM 20072 (enzyme)
[1]
  stoichiometry N: 12

## N[C@@H](CC(=O)O)C(=O)O [L-Asp]
Lc-PepA [2]
  activity at 10000 µM: 78.2%

## N[C@@H](CC(=O)O)C(=O)Nc1ccc([N+](=O)[O-])cc1 [H-Asp-pNA]
Lb-PepA
  H-Asp-pNA / KIS [mM]: 6.66 mM
Lc-PepA [3]
  H-Asp-pNA / KIS [mM]: 41.9 mM

## N[C@@H](CCC(=O)O)C(=O)O [L-Glu]
Lc-PepA [2]
  activity at 10000 µM: 82.3%

## Glutamyl (aspartyl)-specific aminopeptidase A (PepA) from Lactococcus lactis ssp. lactis DSM 20481 (from UniProt Q48677 1-355) (enzyme)
[4]
  stoichiometry N: 12

## N[C@@H](CCC(=O)O)C(=O)Nc1ccc([N+](=O)[O-])cc1 [H-Glu-pNA]
Lc-PepA [5]
  H-Glu-pNA / KIS [mM]: 3.61 mM

B1: Lb-PepA (Lactobacillus delbrueckii subsp. lactis DSM 20072) (protein)
chain: T2 sequence (F0HXE4 1-361)
notes: full length (361 aa, 1086 bp gene), C-terminal His6-tag kept, pET20b(+), E. coli BL21(DE3), Ni-NTA purified
Purified protein [6]
  Km: 1210 µM
Purified protein [7]
  Km: 25200 µM

B2: Lc-PepA (Lactococcus lactis subsp. lactis Il1403) (protein)
chain: T1 sequence (Q9CIH3 1-355)
notes: full length (355 aa, 1068 bp gene), C-terminal His6-tag kept, pET20b(+), E. coli BL21(DE3), Ni-NTA purified
Purified protein [8]
  Km: 340 µM
Purified protein [9]
  Km: 190 µM

Source: publication PMC4803204, “A Novel Glutamyl (Aspartyl)-Specific Aminopeptidase A from Lactobacillus delbrueckii with Promising Properties for Application” (PLoS ONE, 2016)
